Assay results taken from patent US6319893A, “Raising blood sugar level in hypoglycemic mammals by administering inhibitors of dipeptidyl peptidase IV” (Probiodrug, priority 1998, dated 2001).

Experiments:
DP IV = DP IV (Homo sapiens, UniProt P27487); test: MALDI-TOF mass spectra of glucagon solution incubated with DP IV; type: biochemical; settings: 0.14 mmol glucagon solution, 40 mmol TRIS/HCL pH=7.6, 40 nmol DP IV; FIG. 1
serum DP IV = target: T1, serum DP IV (Homo sapiens, UniProt P27487); test: MALDI-TOF mass spectra of a glucagon-serum mixture, serum DP IV-catalysed glucagon cleavage; type: biochemical; settings: no inhibitor, FIG. 2 A
T1 construct: from tissue; host or cells: serum
Text: Inhibition of Serum DP IV-catalysed Glucagon Cleavage by the DP IV Inhibitor Isoleticyl-thiazolidine

Sequence of DP IV (P27487 whole entry): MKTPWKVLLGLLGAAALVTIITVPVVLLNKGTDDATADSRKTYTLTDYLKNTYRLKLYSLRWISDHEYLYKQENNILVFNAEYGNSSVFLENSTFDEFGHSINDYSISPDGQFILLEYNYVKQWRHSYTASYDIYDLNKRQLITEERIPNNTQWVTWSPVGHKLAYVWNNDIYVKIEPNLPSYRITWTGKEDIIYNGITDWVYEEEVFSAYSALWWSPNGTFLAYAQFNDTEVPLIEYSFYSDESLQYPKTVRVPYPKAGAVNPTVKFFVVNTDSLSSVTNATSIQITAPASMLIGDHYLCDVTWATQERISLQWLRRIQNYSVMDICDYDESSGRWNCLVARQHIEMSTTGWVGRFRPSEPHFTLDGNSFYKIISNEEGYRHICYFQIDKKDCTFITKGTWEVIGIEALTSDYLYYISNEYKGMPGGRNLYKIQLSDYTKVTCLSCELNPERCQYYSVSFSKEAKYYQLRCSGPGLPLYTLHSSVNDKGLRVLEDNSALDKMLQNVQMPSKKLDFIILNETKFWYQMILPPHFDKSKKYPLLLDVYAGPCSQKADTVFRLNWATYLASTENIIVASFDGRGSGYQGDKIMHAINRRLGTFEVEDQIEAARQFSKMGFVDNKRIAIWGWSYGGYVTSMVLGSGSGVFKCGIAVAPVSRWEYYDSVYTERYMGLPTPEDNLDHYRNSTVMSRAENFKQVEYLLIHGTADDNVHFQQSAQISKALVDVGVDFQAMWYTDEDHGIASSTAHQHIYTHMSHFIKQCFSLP
T1 sequence (P27487 39-766 limits assumed): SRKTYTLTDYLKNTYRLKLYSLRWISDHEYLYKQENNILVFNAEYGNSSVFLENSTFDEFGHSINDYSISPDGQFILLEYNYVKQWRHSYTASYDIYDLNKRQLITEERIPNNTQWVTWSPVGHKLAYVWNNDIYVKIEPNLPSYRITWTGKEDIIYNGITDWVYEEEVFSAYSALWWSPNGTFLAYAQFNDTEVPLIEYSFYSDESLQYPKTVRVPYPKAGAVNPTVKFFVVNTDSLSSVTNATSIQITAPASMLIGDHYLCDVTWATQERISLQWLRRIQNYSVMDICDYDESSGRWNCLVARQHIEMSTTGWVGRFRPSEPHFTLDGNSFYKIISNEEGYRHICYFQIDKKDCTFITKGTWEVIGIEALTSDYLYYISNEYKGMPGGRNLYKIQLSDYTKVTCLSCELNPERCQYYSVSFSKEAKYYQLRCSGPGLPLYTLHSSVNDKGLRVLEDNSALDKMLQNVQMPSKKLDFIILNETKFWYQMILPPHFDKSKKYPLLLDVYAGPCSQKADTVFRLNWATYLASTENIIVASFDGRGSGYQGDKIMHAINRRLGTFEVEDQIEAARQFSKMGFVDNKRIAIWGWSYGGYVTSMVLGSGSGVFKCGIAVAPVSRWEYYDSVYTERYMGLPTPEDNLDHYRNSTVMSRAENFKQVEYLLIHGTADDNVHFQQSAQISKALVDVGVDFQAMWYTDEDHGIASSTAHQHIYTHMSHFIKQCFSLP

glucagon
cleavage of glucagon by DP IV (MALDI-TOF) (DP IV): removal of the dipeptides His-Ser and Gln-Gly occurs sequentially depending upon the incubation time
hydrolysis of glucagon by serum DP IV (MALDI-TOF) (serum DP IV): serum-DP IV hydrolyses glucagoni
